Substrate in data set [1]: C=C(OP(=O)(O)O)C(=O)O
In words: purified protein. It counts as biochemical, Trichinella spiralis. Conditions: co-substrate ADP, Tris-HCl pH 8.0, 37°C.

Substrate in data set [2]: Nc1ncnc2c1ncn2[C@@H]1O[C@H](COP(=O)(O)OP(=O)(O)O)[C@@H](O)[C@H]1O
In words: purified protein. It counts as biochemical, Trichinella spiralis. Conditions: co-substrate PEP, Tris-HCl pH 8.0, 37°C.

B1: rTsPKM (recombinant T. spiralis pyruvate kinase M) (Trichinella spiralis) (protein)
chain: MSEKQSQKSRKLAKVAAIPAKTTLEHLCRLDTDHSVEKLVSKTGLICTIGPASCSVETLTKMIQAGMTIARLNFSHGSHDYHAQTVANIRKAVDSLAASGNGKVVAIALDTKGPEIRTGYLAVGSNEEVVVEANSAVRVTVDSGMKFRCTESLIYVDYENMPKVVSKGSKIYIDDGLISLLVNEVADNHLDCVVEHGGKLGSCKGVNLPDCEVDLPAVSEKDAQDLQFAVKHQCDMVFASFVRSAEAVRQIRQTLGVEGRGIKIVAKIENRQGIANVDSIIEEADGVMIARGDLGIEIPAEQVFVAQKAIIAKCRLAGKPAICATQMLESMVDKARPTRAEITDVANAVLDGADCVMLSGETAKGRHPVQAVRTMHQICCQAESVFFQKHFFDELQAMLPRPMNAMDTIAFAVTTAAANCNASAIILLTNTGASAVALSKCRPSSMIISVVKKEQTARYLRLYSGILPCVYDSKNSSSSSPNAVVDWVTSVDQRINYAILFGKKERIIHDGDNVIVVNGWREGPGHTNTIRIFAVEPLIPRP
B1: the Km – broadly, the substrate concentration at which the rate is half of its maximum – in data set [1] is 1510 µM; in data set [2] it was 3330 µM.

The values are drawn from PMC9621426, “Characterization of a novel pyruvate kinase from Trichinella spiralis and its participation in sugar metabolism, larval molting and development” (PLOS Neglected Tropical Diseases, 2022).
